# Results reported in the nanobody polyreactivity screen of Harvey et al. (2022).
# Assay: yeast display, Sf9 membrane polyspecificity reagent, FACS + sequencing; frameworks hold sequencing errors
# Summary of the method: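 A synthetic nanobody library was expressed on Saccharomyces cerevisiae BJ5465 by galactose induction for 36–48 hours. The library was stained for 1 hour at 4 °C with 10% biotinylated, detergent-solubilized Sf9 membrane reagent and enriched with streptavidin microbeads before FACS. Low and high (top ~1%) gates were set on anti-HA fluorescence for expression and streptavidin fluorescence for reagent binding, and each polyreactivity label reflects the gate of origin.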
row,Sequence,polyreactivity (PSR sort gate)
1,QVQLVESGGGLVQAGGSLRLSCAASGRIFGKYAMGWYRPAPGKERELVAAIDGSGSTNYADSVKGRFTISRDNAKNTVYLQMNSLKPEDTAVYYCATDHAQKFRYRSPREYWGEGTQVTVSS,low polyreactivity
2,QVQLVESGGGLVQAGGSLRLSCAASGRTFGGNVRVWYRQAPGKERELVAAISYSGRSTHYAESVKGRFTISRDNAKNTVILQMNSLKPEDTAVYYCNKPFPYYPDGPNGYDYWGQGTKVTVSS,low polyreactivity
3,QVQLVESGGGLVQAGGSLRLSCAASGSTFYPYAMGWYRQAPGKERELVAAITSGGRTYYADSVKGRFTISRDNAKNTVYLQMNSLKPEDTAVYYCAAVYINRLTSKYEYWGQGTQVTVSS,high polyreactivity
4,QVQLVESGGGLVQAGGRLRLSCAASGRIFAYYAMGWYRQAPGKERELVAGISQRGSRTYYADSVKGRFTNSRDNAKNTVYLQMNSLTPEDTAVYYCAARDRRTVTMDYWGQGTQVTVSS,high polyreactivity
5,QVQLVESGGGLVQAGGSLRLSCAASGFTSWQYAMGWYRQAPGKERELVAAISVSGASTNYADSVRGRFTISRDNAKNTVYLQMNSLKPEETAVYYCAAAYVRYPTTRYYYWGQGTQVTVSS,high polyreactivity
6,KVQLVESGGGLVQAGGSLRLSCAASGSTFSLYTLGGYRQAPGTERELVAAITNGGSTKYADSVKGRFTISRDNAKNTDYFQMNSLKPEDTAVYYCAALYSHYYWIEYDYWGQGTQVTVST,low polyreactivity
7,QVQLVESGGGLVQAGGSLRLSCAASGRIFVGYAMGWYRQAPGKERELVAAINRSGSSTYYADSVKGRFTISRDNAKNTVYLQMNSLKPEDTAVYYCNARSANRYGPRYDYWGQGTQVTVSS,high polyreactivity
8,QVQLVESGGGLVQAGGSLRLSCAASGGIFSYNVMGWYRQAPGKERELVAAITRGGSTYYADSVKGRFTISRDNAKNTVYLQMNSLKPEDTAVYYCAAVRNYLWTGYDYWGQGTQVTVSS,high polyreactivity
9,QVQLVESGGGLVQAGGSLRISCAASGSIFWANAMGWYRQAPWKERELVAAISSSGGRTYYADSVKGRFTISRDNAKNTVYLQMNSLKPEDSAVYDCNKLRLAYYEQGDYWGQGTQVNVSS,high polyreactivity
10,QVQLVESGGGLVQAGGSLRLSCAASGFTFSLYGMGWYRQAPGKERELVAAIRSGGSRNYADSVKGRFTISRDNAKNTVYLQMNSLKPEDTAVYYCATDIHSVHNNRDKHDYDYWGQGTQVTVSS,low polyreactivity
11,QVQLVESGGGLVQAGGRLRLSCAASGSTSLYYAMGWYRQAPGKEREFVAAITWSGGSTYYADSGKGRFTITRDNAKNTVYLQMNSLKPEDTAVYYCAGRSYGYSAGYYWGQGTQVTVSS,high polyreactivity
12,QVQLVESGGGLVQAGGSLRLSCAASGFTFVSNDMGWYRQAPGKERELVAVITTGDTSTSYADSVKGRFTISRDNAKNTVYLQMNSLKPEDTAVYYCAADPHDTVRHDALVELEYWGQGTQVTVSS,low polyreactivity
13,QVQLVESGGGLVQAGGSLRLSCAASGSIFDFYAMGRYRQAPGKERELVAAISYSGSSTYYADSVKGRFTISRDNAKNTVYLQMNSLKPEDTAVDYCATDYPGGYVYYSRFDYWGQGTQVTVSS,low polyreactivity
14,QVQLVESGGGLVQAGGSLRLSCAATGRIFGQNAMGWYRQAPGKERELVAAINWSVGSTYYADSVKGRFTISRDNAKNTVYLQMNSLKPEDTGVYYCAAGNLYYAEYDYWGQGTQVTVSS,low polyreactivity
15,QVQLVESGGGLVQAGGSLRLSCAASGSIFSIYAMGWYRQAPGKERELVAAINWIGTSTYYADSVKGRFTISRDNAKNTVYLQMNSLKPEDTAVYYCAAVSRRVSPYLSARDYCGQGTQVTVSS,high polyreactivity
16,QVQLVESGGGLVQAGGSLRLSCAASGFIFSRNAMGWYRQAPGKERELVATISKRGGSTYYADSVKGRFTISRDNAKNTVYLQMNSLKPEDTAVYYCAATGGILSTYDYWGQGTQVTVSS,high polyreactivity

row,Sequence,polyreactivity (PSR sort gate)
1,QVQLVESGGGLVQAGGSLRLSCAASGRIFTVNAMGGYRQAPGKERELVAAITFSGANTYYADSVKGRFTISRDNAKNTVFLQMNSLKPEDTAVYYCAGDPPNGAEYYWGQGTQVTVSS,high polyreactivity
2,QVQLVESGGGLVQARGSLRLSCAGSGRTFGYYAMGWYRHAPGKERELVAAIDQSDTYYADSVKGRFTISRDNAKITVSLQMNSLKPEDTAVYYCAADGDPSIEDEYWGQGTQVTVSS,high polyreactivity
3,QVQLVESGGGLVQAGGSLRLSCPASGNIFGNNAMGWYRQAPGKERELVAAIDGSGGSTYYADSVKGRFTISRDKAKNTVYLQMNSLKPEDTAVYYCAKTAVIWRTWRTVPSPGYHFGYWGQGTQVTVSS,low polyreactivity
4,QVQLVESGGGLVQAGGSLRLSCAASGHIFPTNPMGWYRQAPGKERQLVAVISESVGSTYYADSVKGRFTISRDNAKNTVYLQMNSLKPEDTAVYFCAKQSRYPSLDADYDYWGQGTQVTVSS,low polyreactivity
5,QVQLVESGGGLVQAGGSLRLSCAASGYIFTIYAMGWYRQAPAKEREFVAAITWSGGRTYYADSVKGRFTISRDTAKNTVYLQMNSLKPEDSAVDYGAARVANYLSQMYYWGQGTQVTVSS,high polyreactivity
6,QVQLVESGGGLVQAGGSLRLSCAASGFIFGDYVMGRYRQAPGKEREVVAAITRRGGRTNYADSVKGRFTISRDNAKNTVFLQMNSLIPEDNAVFYCNAQSGVVADDYWGQGSQVTVSS,high polyreactivity
7,QVQLVESGGGLVQPGGSLRLSCAASGGIFLGNAMGGYRQAPGKERELVAGITWSGGRTYYADSVKGRFTISRDNAKNTVYLQMTSLKPEDTAVYDCNKDTPGTRFYGIYSYDYWGQGTQVTVSS,low polyreactivity
8,QVQLVESVGALVQAGGSLRLSCAASGSIFGSNAMGGYRQAPGKERELVAAITWSGTSTYYADSVKGRFTISRDNAKNTVYLQMNSLKPEDTAVYYCARGGYVRAARLVIPYYYWGQGTQVTVSS,low polyreactivity
9,QVQLEESGGGLVQAGGSLSLSCAASGNFFVLYAMGCYRQAPGKERELVASITSDGITYYADSVKGRFTMSRDNAKNTVYLQMNSLKPEDTAVYYCAVDRSYRYLPRGDYWGQGTQVTVSS,low polyreactivity
10,QFQLVESGGGIVQAGGSLRLSCAASGRTIYQYAMGWYRESPANERELVAAISRSGTSTYYADSVKGRFTISRDNAKNTVYLQMNSLKPEDTAVYFCAARYVSKYNYPSPEMYYWGQGTKVTVSS,high polyreactivity
11,QVQLVDSGGGLVQAGGSLRLSCAASGSTFISYAMRWYRPAPGKERELVAAISSSTGRTYYADSVKGRFTISRDNAKNTVYLQMNSLKPEDTAVYYCNAVHRYERVYWGQGTQVTVSS,high polyreactivity
12,QVQLVESGGGLVQAGGSLRLSFAASGFIFYRYVMGWYRQAPGKERELVAAITWSGGSTYYADSVKGRFTISRDNAKNTVYLQMNSLKPEDTAVYYCNAESNLYFRYDYWGQGTQVTVSS,low polyreactivity
13,QVQLVESGGGLVQAGGSLRLSCAASGIIFFSNTMVGYRQAPGKDREFVAAITWSTGNTYYADSVKGRFTISRDNAKNTVYLQMNSLKTEDTAVYYCYAEYLVITLYGGVEFDYWGQGTQVTVSS,low polyreactivity
14,QVQLGESGGGLVQAGGSLRLSCAASGSTLRNNAMGWYRQAPGKERELVASIRTRGGSTRYADSVKGRFTISRDNAKNTVYLQMNSLKPEDTAVYYCAAQYYGKGWQLDYWGQGSQVTVSS,high polyreactivity
15,QVQLVESRGGLVQAGGSLRLSCAASGSIFDGYAMGWYRQAPGKERELVAAITWSGGRTYYADSVKGRFTISRDNAKNTVYLQMNSLKPEDTAVYYCNAVTGSWRYDYWGQGTQVTVSS,high polyreactivity
